Results taken from patent US7704737B2, “Oligodendrocyte production from multipotent neural stem cells” (Stem Cell Therapeutics Inc., priority 2002, dated 2010).
Entries after “also recorded” stand apart in the source; their conditions may differ.

Tests used:
[1] = system: neural stem cells; assay: fate determination analysis (MBP+ and β-tubulin+ cells); assay type: cell-based, mouse; conditions: primary spheres generated in EGF plus factor, differentiated 5 days, FIG. 6
Method: To determine if the presence of GM-CSF during primary neurosphere formation impacts fate determination of neural stem cells, primary neurospheres were generated in either EGF alone, EGF plus GM-CSF, or EGF plus T3 as described in Example 3. The primary spheres were then dissociated and plated on poly-L-ornithine coated coverslips in 24-well plates at a density of 200,000 cells/well in 1 ml of MHM per well, and allowed to differentiate for 5 days. At the end the differentiation period, the cells were fixed with 4% paraformaldehyde and immunostained for the mature oligodendrocyte marker MBP, the neuronal marker β-tubulin, and Hoechst. The total number of live cells, evidenced by Hoechst stain, were counted as well as the immunostained cells.

[2] = system: maturing oligodendrocytes; assay: dying maturing oligodendrocytes (GalC+, TUNEL+ cells); assay type: cell-based, mouse; conditions: 1, 3 or 5 days in differentiation media, FIG. 2
Method: The survival effects of GM-CSF on oligodendrocytes were examined with two lines of experiments. In the first line of experiments, neural stem cells were cultured as described in Example 1 in the presence or absence of GM-CSF or T3, and were fixed after 1, 3 or 5 days of culture in differentiation media. The fixed cells were immunostained for the maturing oligodendrocyte marker GalC and TUNEL, which is a marker of dying cells. The numbers of dicing, maturing oligodendrocytes (GalC+, TUNEL+cells) were then counted and their percentage in total GalC+cells are shown in FIG. 2.

[3] = system: neural stem cells; assay: rapid differentiation protocol of neural stem cells, immunostaining for O4, GalC and MBP; assay type: cell-based, mouse; conditions: for % positive cells, GalC / % positive cells, MBP / % positive cells, O4: 20 ng/ml factor in MHM
Method: To determine the effect of GM-CSF on neural stem cell differentiation, a culture of neural stein cells was prepared from mouse embryos and subjected to a rapid differentiation protocol. Embryonic Day 14 (E14) mouse ganglionic eminence was dissected and grown in media hormone mix (MHM) plus 20 ng/ml epidermal growth factor (EGF) for one week to generate primary neurospheres. The composition of MHM was as follows: • DMEM/F12 (1:1) • glucose (0.6%) • glutamine (2 mM) • sodium bicarbonate ([…]) • HEPES (5 mM) • insulin (25 μg/ml • transferrin (100 μg/ml) • progesterone (20 nM) • putrescine (60 μM) • selenium chloride (30 nM)
Primary neurospheres were then dissociated and plated on poly-L-ornithine coated coverslips in 24-well plates at a density of 200,000 cells/ml in 1 ml of MHM per well. Cells were allowed to differentiate in the absence or presence of 20 ng/ml GM-CSF (murine recombinant GM-CSF, Peprotech) in MHM or 20 ng/ml of triiodothyronine (T3, Sigma) in MHM, or in a combination of both GM-CSF and T3. T3 is a known oligodendrocyte differentiation factor, which was used to compare GM-CSF in these experiments.
After 1, 3 or 5 days, the cells were fixed with 4% paraformaldehyde. […] After staining, the numbers of O4-positive, GalC-positive and MBP-positive cells were counted. The total number of cells were determined using Hoechst staining and live nuclei morphology under 40× magnification. This experiment was performed four times, and 10 non-overlapping fields per coverslip were counted each time. Statistical analyses of the results were performed using Anova with a Tukey-Honest post-hocs analysis.

[4] = system: E14 ganglionic eminence cells; assay: total cell number of primary neural stem cell culture; assay type: cell-based, mouse; conditions: MHM plus EGF plus factor, 1 week, versus MHM plus EGF, FIG. 3
Method: To assess the effect of GM-CSF on proliferation of neural stem cells, the number of cells generated in neurosphere cultures, prepared according to Example 1, was counted when grown for 1 week in various culture media. Thus, E14 ganglionic eminence cells were grown at a density of 200,000 cells/ml in 40 ml of media for 1 week. The media were MHM plus EGF, MHM plus EGF and GM-CSF, or MHM plus EGF and T3. Spheres were then collected, dissociated and cells were counted with a hemacytometer. The cell numbers were calculated as percentages of the control (MHM plus EGF).

[5] = system: differentiating neural stem cells; assay: Survival Assay: factor added or removed at different times, MBP staining; assay type: cell-based, mouse; parameters: MBP + cells after 5DIV: unit not given here; conditions: for dependence of oligodendrocyte numbers on length of time the factor is present: summary of Table 2, MBP after 5 DIV
Method: In the second line of experiments, GM-CSF ,as given to differentiating neural stem cells at different times. Thus, neural stem cell culture was placed in differentiation media as described in Example 1, and GM-CSF was added after 24 or 48 hours, or added in the beginning but removed after 24 or 48 hours. Similarly, T3 was added or removed in the same manner in parallel experiments. The cells were fixed after 5 days in vitro and immunostained with the mature oligodendrocyte marker MBP.

[6] = system: EGF-responsive neural stem cells; assay: secondary neurosphere numbers (self-expansion); assay type: cell-based, mouse; conditions: FIG. 5; for number of secondary neurospheres: factor in secondary neurosphere media, primary spheres grown in EGF; for formation of secondary spheres: factor included in the media for primary neurospheres
Method: Furthermore, the effect of GM-CSF on self-expansion, proliferation of secondary neurospheres derived from primary neurospheres, was also assessed. Three media were used in the preparation of primary spheres: MHM plus EGF, MHM plus EGF plus GM-CSF and MHM plus EGF plus T3. The primary, spheres were dissociated, plated in 96-well plates at a concentration of 1000 cells/well in 200μL media per well, and allowed to form secondary neurospheres for a week. The media for secondary cultures consisted of MHM plus EGF alone, MHM plus GM-CSF or T3 alone, or MHM plus EGF supplemented with GM-CSF or T3. The number of secondary spheres in each well was then counted, calculated as percentage of control (EGF to EGF).

[7] = system: E14 mouse ganglionic eminence cells; assay: primary neurosphere numbers; assay type: cell-based; conditions: MHM plus EGF plus factor, 20 ng/ml, 1 week, FIG. 4
Method: The effect of GM-CSF on primary neurosphere numbers was also examined by growing cells from E14 mouse ganglionic eminence in MHM plus EGF, MHM plus EGF plus GM-CSF, or MHM plus EGF plus T3, all at concentrations of 20 ng/ml. Thus, E14 mouse ganglionic eminence cells were dissociated and plated in 96well plates at a density of 10,000 cells/ml in 200 μl of media per well, and allowed to form primary neurospheres for a week. The number of primary spheres in each well as then counted and the aforementioned statistical analysis as performed.

[8] = McLay et al., 1997; cited from earlier work
[9] = molecular target: T1, GM-CSF (Mus musculus, UniProt P01587); assay: rapid differentiation protocol with GM-CSF with or without soluble GM-CSF receptor alpha; assay type: cell-based; conditions: 100-fold excess of sGMRa, 5 days in vitro, FIG. 1
T1 construct: purchased Peprotech
T1 sequence (P01587 18-141): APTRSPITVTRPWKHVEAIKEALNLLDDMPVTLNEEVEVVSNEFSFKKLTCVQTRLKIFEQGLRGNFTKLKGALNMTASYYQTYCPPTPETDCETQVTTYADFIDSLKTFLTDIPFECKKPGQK
Method: A rapid differentiation protocol was performed, as described above, in the absence or presence of GM-CSF, with or without a 100-fold excess of sGMRa. After 5 days in vitro, the cells were fixed, immunostained with the mature oligodendrocyte marker MBP and counted as previously described.

[10] = immature oligodendrocyte marker O4, 1 DIV
[11] = mature oligodendrocyte marker MBP, 1 DIV
[12] = maturing oligodendrocyte marker GalC, 1 DIV

N[C@@H](Cc1cc(I)c(Oc2ccc(O)c(I)c2)c(I)c1)C(=O)O [T3, triiodothyronine, reference compound]
number of mature oligodendrocytes (MBP+ cells) [1]: increased | number of neurons (β-tubulin+ cells) [1]: decreased | number of dying GalC+ cells (GalC+, TUNEL+ in total GalC+ cells) [2]: only minor survival effects, if any | % positive cells, GalC ([3]; GalC, 3 DIV): 15.3 ± 1.5 % | % positive cells, GalC ([3]; GalC, 5 DIV): 11.1 ± 0.9 % | % positive cells, MBP ([3]; MBP, 3 DIV): 13.9 ± 1.1 % | % positive cells, MBP ([3]; MBP, 5 DIV): 17.2 ± 1.6 % | % positive cells, O4 ([3]; O4, 3 DIV): 35.9 ± 1.7 % | % positive cells, O4 ([3]; O4, 5 DIV): 19.9 ± 1.5 % | % positive cells, O4 [3, 10]: 18.2 ± 1.2 % | % positive cells, MBP [3, 11]: 1.6 ± 0.4% | % positive cells, GalC [3, 12]: 8.0 ± 0.8 % | total cell number in the neural stem cell culture [4]: reduces | MBP + cells after 5DIV ([5]; factor added after 24 hours): 14.8 ± 1.5 | MBP + cells after 5DIV ([5]; factor added after 48 hours): 12.0 ± 1.1 | MBP + cells after 5DIV ([5]; factor present for 5 DIV): 13.9 ± 1.1 | MBP + cells after 5DIV ([5]; factor removed after 24 hours): 15.5 ± 1.1 | MBP + cells after 5DIV ([5]; factor removed after 48 hours): 13.8 ± 1.1 | dependence of oligodendrocyte numbers on length of time the factor is present [5]: did not chance regardless of the length of time | number of secondary neurospheres [6]: decreased | formation of secondary spheres [6]: detrimental | ability of neural stem cells to form primary neurospheres [7]: neither GM-CSF nor T3 have significant effects

B1: GM-CSF: murine recombinant GM-CSF, Peprotech (protein, UniProt P01587 18-141, looked up)
Granulocyte-macrophage …: APTRSPITVTRPWKHVEAIKEALNLLDDMPVTLNEEVEVVSNEFSFKKLTCVQTRLKIFEQGLRGNFTKLKGALNMTASYYQTYCPPTPETDCETQVTTYADFIDSLKTFLTDIPFECKKPGQK
number of mature oligodendrocytes (MBP+ cells) [1]: increased | number of neurons (β-tubulin+ cells) [1]: decreased | number of dying GalC+ cells (GalC+, TUNEL+ in total GalC+ cells) [2]: significantly reduced | % positive cells, GalC ([3]; GalC, 3 DIV): 7.4 ± 0.8% | % positive cells, GalC ([3]; GalC, 5 DIV): 7.9 ± 1.0 % | % positive cells, MBP ([3]; MBP, 3 DIV): 8.1 ± 0.9 % | % positive cells, MBP ([3]; MBP, 5 DIV): 12.2 ± 1.3 % | % positive cells, O4 ([3]; O4, 3 DIV): 25.7 ± 1.5% | % positive cells, O4 ([3]; O4, 5 DIV): 9.6 ± 1.0% | percentage of oligodendrocytes produced from neural stem cells ([3]; every stage of oligodendrocyte development, versus control): significantly increased; also recorded: increased by several folds | % positive cells, O4 [3, 10]: 16.6 ± 1.2 % | % positive cells, MBP [3, 11]: 1.2 ± 0.3% | % positive cells, GalC [3, 12]: 4.1 ± 0.6% | total cell number in the neural stem cell culture [4]: slightly increased | crossing the blood-brain barrier [8]: capable of crossing the blood-brain barrier | MBP + cells after 5DIV ([5]; factor added after 24 hours): 8.1 ± 0.9 | MBP + cells after 5DIV ([5]; factor added after 48 hours): 3.9 ± 0.6 | MBP + cells after 5DIV ([5]; factor present for 5 DIV): 8.0 ± 0.8 | MBP + cells after 5DIV ([5]; factor removed after 24 hours): 5.4 ± 1.0 | MBP + cells after 5DIV ([5]; factor removed after 48 hours): 9.7 ± 1.0 | dependence of oligodendrocyte numbers on length of time the factor is present [5]: required for an extended period of time | number of secondary neurospheres [6]: does not significantly affect | formation of secondary spheres [6]: detrimental | ability of neural stem cells to form primary neurospheres [7]: neither GM-CSF nor T3 have significant effects

B2: sGMRa: GM-CSF receptor alpha (sGMRa), a soluble factor that binds GM-CSF (protein, UniProt P15509 23-320, looked up)
extracellular domain: EKSDLRTVAPASSLNVRFDSRTMNLSWDCQENTTFSKCFLTDKKNRVVEPRLSNNECSCTFREICLHEGVTFEVHVNTSQRGFQQKLLYPNSGREGTAAQNFSCFIYNADLMNCTWARGPTAPRDVQYFLYIRNSKRRREIRCPYYIQDSGTHVGCHLDNLSGLTSRNYFLVNGTSREIGIQFFDSLLDTKKIERFNPPSNVTVRCNTTHCLVRWKQPRTYQKLSYLDFQYQLDVHRKNTQPGTENLLINVSGDLENRYNFPSSEPRAKHSVKIRAADVRILNWSSWSEAIEFGSDDG
modifications: extracellular domain
effect of GM-CSF on MBP+ cells [9]: specifically inhibited
